The results in this text go back to patent US20220002699A1.

The assay deals with SARS-CoV-2 spike (S) glycoprotein on live SARS-CoV-2 virus (SARS-CoV-2) (UniProt P0DTC2). Description: cell-based or functional assay.

Regarding Neg control, the in vitro virus neutralization EC50 was greater than 10 µg/mL.
